Substrate in this data set: NC(=O)c1ccc[n+]([C@@H]2O[C@H](COP(=O)([O-])OP(=O)(O)OC[C@H]3O[C@@H](n4cnc5c(N)ncnc54)[C@H](O)[C@@H]3O)[C@@H](O)[C@H]2O)c1
The data set can be described thus: purified protein. The data set is classed as biochemical, Triticum aestivum.

These results are taken from publication PMC3645732, “A Differential Redox Regulation of the Pathways Metabolizing Glyceraldehyde-3-Phosphate Tunes the Production of Reducing Power in the Cytosol of Plant Cells” (International Journal of Molecular Sciences, 2013).

B1: Ga3PDHase (phosphorylating NAD+-dependent glyceraldehyde-3-phosphate dehydrogenase, EC 1.2.1.12) (Triticum aestivum) (protein)
chain: MGKIKIGINGFGRIGRLVARVALQSPDVELVAVNDPFITTDYMTYMFKYDTVHGQWKHHEVKVKDSKTLLFGEKEVAVFGCRNPEEIPWAAAGAEYVVESTGVFTDKDKAAAHIKGGAKKVIISAPSKDAPMFVCGVNEKEYKSDIDIVSNASCTTNCLAPLAKVINDRFGIVEGLMTTVHAMTATQKTVDGPSSKDWRGGRAASFNIIPSSTGAAKAVGKVLPELNGKLTGMAFRVPTVDVSVVDLTVRLAKPATYDQIKAAIKEESEGNLKGILGYVDEDLVSTDFQGDNRSSIFDAKAGIALNDHFVKLVSWYDNEWGYSTRVVDLIRHMHSTK
notes: recombinant wheat gapC (NCBI EF592180), homotetramer, E. coli
As to B1, the K0.5 was found to be 136 µM.
